Binding result and Kd data for two molecules are collected here from article PMC10993888.

The target of data set [1] is SARS-CoV-2 spike S1 subunit (SARS-CoV-2, UniProt P0DTC2 16-685). Kind of data set: SPR. Conditions: protein: commercial.
The target of a further data set is MERS-CoV RBD (MERS-CoV, UniProt K9N5Q8 367-606). Conditions: protein: commercial; label: 3'-biotin-TEG (SPR).
The target of the next data set is SARS-CoV-1 RBD (SARS-CoV-1, UniProt P59594 306-527). Conditions: protein: commercial; label: 3'-biotin-TEG (SPR).

In general, Kd refers to the concentration at which binding is half-saturated.

Regarding GGGTGAATCTATGGGGTGGGCAGGGG (XNA) [SPA1-M12], the binding result in data set [1] was “binds”. With GGGTGAATCTATGGGGTGGGCAGGGG (XNA) [SPA1-M13], the Kd with MERS-CoV RBD stood at 4 nM; in the data set with SARS-CoV-1 RBD, 8.7 nM.
